Assay results: the nanobody polyreactivity screen of Harvey et al. (2022)

Experiment: yeast display, Sf9 membrane polyspecificity reagent, FACS + sequencing; frameworks hold sequencing errors
How it was run: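 Nanobodies came from a synthetic yeast display library in Saccharomyces cerevisiae BJ5465, induced with galactose for 36–48 hours and stained for 1 hour at 4 °C with 10% biotinylated, detergent-solubilized Sf9 membrane reagent. Cells were enriched on streptavidin microbeads and then FACS-sorted, with low and high (top ~1%) gates set on anti-HA fluorescence for expression and streptavidin fluorescence for reagent binding. Each polyreactivity label reflects the gate a clone came from. Genes were amplified by colony PCR, sequenced by MiSeq 2 × 250 and filtered by CDR length.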

Sequence	polyreactivity (PSR sort gate)
QVQLVESGGGLVQAGGSLRLTCAASGSIFEGNAMGWYRQAPGKESELVASISGDGSTNYADSVKGRFTISRDNAKNSVYLQMNSLKPEDTAVYYCNADTISEPGFHMDYWGQGNQVTVSS	low polyreactivity
QVQLVESGGGLVQAGGSLRLTCAASGSIFPGYAMGWYRQAPGKDRELVATITASGGSTYYADSVKGRFTISRDNAKNTVFLQMISLKPEDTAVYDCAKDRYWYFRRRGQYDYWGQGTQVTVSS	high polyreactivity
QVQLVESGGGLVQAGGSLRLTCAASGSIFQPNMGWNRHAPGKERELVASITTGTTKYADSVKGRFTISRDNAKNTVYLQMNSLKPEDTAVYYCAADLQATVYLIFGYWGQGTQVTVSS	low polyreactivity
QVQLVESGGGLVQAGGSLRLTCAASGSIFRVYAMGWYRQAPGKERELVAVISIAGRTNYADSVKGRFTISRDNAKNTVYLQMNSLKAEDTAVYYCNAGGVGVATGYDYWGQGTQVTVSS	low polyreactivity
QVQLVESGGGLVQAGGSLRLTCAASGSIFTFYAMGWYRQAPGKERELVADISFSDVSTYYADSVKGRFTISRDNAKNTVYLQMNSLKPEDTAVYYCAARPYVVSQYFDGVEFYYWGQGTQVTVSS	low polyreactivity
QVQLVESGGGLVQAGGSLRLTCAASGSIFVSYARGWYREAPGKERELVAAITSAGTPYYADSVKGRFTISRDNAKNTVYLQMNSLKPDDTAVYYCNTDASLKRTRVSPETEYGYWGQGTQVTVSS	low polyreactivity
QVQLVESGGGLVQAGGSLRLTCAASGSIFWYNAMGWYRQAPGKERELVAAIKWSGGSTFYADSVKGGFTISRDTAKNNVYLQMNSLKPEDTAVYYCNAPPLYRDEFWGQGTQVTVSS	high polyreactivity
QVQLVESGGGLVQAGGSLRLTCAASGSTFFYYAMVWYIHAPGKERELVAAITVRGTSTYYADSVKGRFTISRDIAKNTVYLQMNSLKPEDTAVYYCNTLQPYLYDYWGQGTQVTVSS	high polyreactivity
QVQLVESGGGLVQAGGSLRLTCAASGSTFGDYDMGWYRQAPGKERELVAAISNGGSTYYADSVKGRFTISRDNAKNTVYFQMNSLKPEDTAVYYCNADNVEIRSTYEYGRYLYGYWGQGTQVTVSS	low polyreactivity
QVQLVESGGGLVQAGGSLRLTCAASGSTFRKNVMGWYRQAPGKERELVARISNSGGSTNYADSVKGRFTISRDNAKITVYLQINSLKPADTAVYNCNARKYTNHATYDYWGQGTQVTVSS	high polyreactivity
QVQLVESGGGLVQAGGSLRLTCAASGSTFVINVMGWYRQAPGKERELVAAISNGGRTYADSVKGRFTISRDNAKNTVYLQMNSLKPEDTAVYYCAADVSFTQSDGRLAEYGYWGQGTQVTVSS	low polyreactivity
QVQLVESGGGLVQAGGSLRLTCAASGSTFWDNAMGWYRQAPGKERELVAAITAIGGTTYYADSVKGRFTISRDNAKNTVYLQMKSLKPEDTAVYYCAAVWSRFLISYSTGWWFEYWGQGTQVTVSS	low polyreactivity
QVQLVESGGGLVQAGGSLRLTCAASGSTFYHNAMGWYRQAPGKERELVAAITTSGGSTYYADSVKGRFTISRDNAKNTVYLQMNSLKPVDTAVYYCNVYRPYLAPYDYWGQGTQVTVSS	low polyreactivity
QVQLVESGGGLVQAGGSLRLTCAASGSTLDYYAMGWYRQAPGKERELVAAITQSGASTYYADSVKGRFTISRDNAKNPVYLQMNSLKPEDTAVYYCAAEDYTIYGGEYDYWGQGTQVTVSS	low polyreactivity
QVQLVESGGGLVQAGGSLRLTCAASGSTLKSYAMGWYRQAPGKERELVAAITRSGARTYYADSVQGRFTISRDNAKNTVYFQMNSLKPEDTAVYYCNRVGYQYGSDQEDDYWGQGTQVTVSS	high polyreactivity
QVQLVESGGGLVQAGGSLRLTCAASGSTLRYYAMGWYRQAPGKERELVAAISTGGSTYYADSVKGRFTISRDNAKITVYLQINSLKPEDTAVYYCAAEKKTKTYRYDYWGQGTQVTVSS	low polyreactivity
QVQLVESGGGLVQAGGSLRLTCAASGYTFLHYAMGWYRQPPGKERELVAAITHSGTRTYYADSVKGRFTISRDNAKNTVYLQMNSLKPEDTAVHYCAARGYGKYDYWGQGTQVTVSS	high polyreactivity
QVQLVESGGGLVQAGGSLRLTCAASGYTLGYNAMGWYRKAPGKEMELVAAITIDGSTTYADSVKGRFTISRDNAKNTVYLLMNSLKPEDTAVYYCNAEGFTSDPYDSDYWGKGTQVTVSS	low polyreactivity
QVQLVESGGGLVQAGGSLRLTCAASVFTWSYAMVWDRHATGKERELVATISDGVSTNYSDSVKGRFTISRDNAKNSVYLQMNSLKPEDTAVYYCAVRVSGPRGYDYEYWGQGTQVTVSS	low polyreactivity
QVQLVESGGGLVQAGGSLRLTCAAYGRIFRYYPMGWYRQAPGKERDLVAAINWRGTSTSYADSVKGRFTISRDIAKNTVYLQMNSLKPEETAVYYCARVAWSESDWQKMDYWGQGTQVTVSS	high polyreactivity

Sequence	polyreactivity (PSR sort gate)
QVQLVESGGGLVQAGGSLRLTCADSGFIFYRYAMVWYRQAPGKERELVAAISTRGGSTFYADSVKGRFTISRDNAKNTVYLQMNSLKPEDTAVYYCATGPLRAYDYWGQGTQVTVSS	high polyreactivity
QVQLVESGGGLVQAGGSLRLTCAPSGFIFTPNAIGWYRQAPGKERELVAAISRGGGSTYYADSVKGRFTISRDNAKNTVYLQMNSLKPQDTAVYYCNARSKNGGTTFGYWGEGTQVTVSS	high polyreactivity
QVQLVESGGGLVQAGGSLRLTCDASGRTFYQNTMGWYRQAPGKERELVAAISYRVGRTYYADSVKGRFSISSDNAKNTVYLQMNSLKPEDTAVYYCAAGVWWWTIPYEYWGQGSQVTVSS	high polyreactivity
QVQLVESGGGLVQAGGSLRLTCPASGTIFWNYAMGWYRQAPGKERELVAAISFSGGSTYYADSVKGRFTISRDNAKNTVYLQMNSLKPEDTAVYYCNADYSYVGEYDYWGQGTQVTLSS	low polyreactivity
QVQLVESGGGLVQAGGSLRLTCSASGSTFYYYAMGWYRQAPGKERELVAAITISGGSTYYADSVKGRFTISRDKAKNTVYLQLNSLKPEDTAVYYCNVDDRETRDDYWGQGTQVTVSS	low polyreactivity
QVQLVESGGGLVQAGGSLRLTGAASGRIFRSYAMGWYRQAPGKERELVASISGSTTYYADSVKGRFTISRDNAKNTVYLQMNSLKPEDTAVYYCAVKYDAWGYGYRHFDYWGQGTQVTVSS	low polyreactivity
QVQLVESGGGLVQAGGSLRLTSAASGSIFRYYTMGWYRHAPRKERELVAAISRNGGSTYYADSVKGRFTISRDNAKNSVYLQMNSLKPVDTAVYYCNADGGDWFGYVGMDYWGQGTQVTVSS	high polyreactivity
QVQLVESGGGLVQAGGSLRLTSAASVSTFYNYAMVWYRQAPGKERELVASMTWNGGSTYYADSVKGRFTISRDNAKNTVDLQMTSLKPEDTAGSYCAAEYRDQYPTYPYYRPGYDYWGQGTQVTVSS	low polyreactivity
QVQLVESGGGLVQAGGSLRLTSAGSGFTFTIYAMGWYRQAPGKERELVATISGRAGRTYYADSVKGRFTISRDNAKNTVYLQMNSLKPEDTAVYYCNAGQWRYPGLYYYWGQGSQVTVSS	high polyreactivity
QVQLVESGGGLVQAGGSLRLTSDASGFTFRSNAMGWYRQAPGKERELVAAITSRGGSTYYADSVKGRFTISRDYAKNTVYLQMNSLKPEDTAVYYCAADGRSRKFDYWGQGTQVTVSS	high polyreactivity
QVQLVESGGGLVQAGGSLRSSCASSGSIFDGNTMGWYRQAPGKERELVAAISYSGGSTYYADSVKGRFTISRDNAKNTVYLQMNSLKPEDTAVYYCAAEWYGYQEDDYWGQGTQVTVSS	low polyreactivity
QVQLVESGGGLVQAGGSLRVCCAASGRIFGNYAMGWYRQAPGKDRELVAAISGGGSTYYADSVKGRFTISRDNAKNTVYVQMNSLKPEDTAVYYCAAKPTYRGYGYGSWGQGTQVTVSS	low polyreactivity
QVQLVESGGGLVQAGGSLRVSCAASGFIFSYNAMGWYRQEPGKERELVAAMSSGGGSTYYADSVKGRFTISRDNAKNTVYLQMNSLKPEDTAVSYCAARVAYTFGYWGQGTQVTVSS	high polyreactivity
QVQLVESGGGLVQAGGSLRVSCAASGFIIIGYVMGWYRQSPGKERELVAAITSSGGSTYYADSVKGRFTISRDNAKNTVYLQMNSLKPEDTAVYYWNADIYISPLVQVSKGYDYWGQGTQVTVSS	low polyreactivity
QVQLVESGGGLVQAGGSLRVSCAASGFSFKYYAMGWYRQAPGKERELVAAITKRGGSTYYADSVKGRFTISRDNAKNTVYLQLNSLIPEDTAVYYCAADGRAYERYDYRSDYWGQGSQVTVSS	high polyreactivity
QVQLVESGGGLVQAGGSLRVSCAASGFTFHKYAMGWYRQAPGKDRELVAVISQSASSTYYADSVKGRFTISRDNAKNTVYFQMNGLKPEDTAVYYCNAKYYRYNRRNYWGQGTQVTVSS	high polyreactivity
QVQLVESGGGLVQAGGSLRVSCAASGFTFRGYAMGWYRQAPGKERELVAAIRRGVITNYADSVKGRFTISRDNAKNTVYLQMHSLKPEDTAVYYCAAGNITPYRYYHGYYQSIYDYWGQGTQVTVSS	low polyreactivity
QVQLVESGGGLVQAGGSLRVSCAASGFTFRGYAMGWYRQAPGKERELVAAIRRGVITNYADSVKGRFTISRDNAKNTVYLQMNSLKPEDTAVYYCAAGNITPYRYYHGYYQSIYDYWGQGTQVTVSS	low polyreactivity
QVQLVESGGGLVQAGGSLRVSCAASGGTFGNNDMGWYRQAPGKEWELFAAIRAAGTTYYADSVKGRFTISRDNAKNTVYLQMNSLKPEDTAVYYCIADTTGYWSYGFQYYGEDYWGQGTQVTVSS	low polyreactivity
QVQLVESGGGLVQAGGSLRVSCAASGLTFDTNAMGWYRQARGKERELVAAITDSGDSTYYADSVKGRFTISRDNAKNTVYLQMNRLKPEDSAVYYCAARRSNLAWGRRRMYYWGQGTQVTVSS	high polyreactivity
